Data: US20060234917A1
pKd: −log10 of the molar value.

Key:
[1] = target: BAFF (Homo sapiens (Human)) (UniProt Q9Y275); assay: BIAcore 3000, solution-phase equilibrium binding, fit to a quadratic equation
[2] = target: BAFF (Homo sapiens (Human)) (UniProt Q9Y275); assay: BIAcore 3000, solution-phase equilibrium binding; free BAFF read on a BCMA-Fc chip; apparent KD

| stoichiometry (BAFF:BAFF-R:Fc) (BAFF:BAFF-R:Fc) [1] | pKd [2] | Substance |
| --- | --- | --- |
| 1 | > 3.70 | vBAFF-R(R3-A49):Fc (from UniProt Q96RJ3 2-48) (Fc fusion) |
| 1 | > 3.70 | vBAFF-R(R3-A72):Fc (from UniProt Q96RJ3 2-71) (Fc fusion) |
